# Results reported in PMC12413468 (Communications Biology, 2025).
# Where no end group is shown, it is not given here. [ ]: non-standard residue; d: D form. pS = N[C@@H](COP(=O)(O)O)C(=O)O
# Columns and labels:
# [1] = biological target: His6-tagged SPAK CCT domain (mouse SPAK 459–556) (mouse, UniProt Q9Z1W9 459-556); assay: fluorescence polarisation
# [2] = biological target: T1, His6-tagged OSR1 CCT domain (human OSR1 433–527) (human, UniProt O95747 433-527); assay: fluorescence polarisation
# [3] = biological target: T1, His6-tagged OSR1 CCT domain (human OSR1 …); assay: peptide or protein array
# T1 sequence (O95747 433-527): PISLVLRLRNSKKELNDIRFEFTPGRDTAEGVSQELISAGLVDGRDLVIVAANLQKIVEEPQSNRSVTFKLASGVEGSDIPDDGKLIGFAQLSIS
binder,measurement,setting,value
SAGHHFIVSPVPE [WNK1 peptide 1253–1265 with the arginines replaced by histidine-histidine],fold decrease in affinity against wild type,[1],~7 fold
same,fold decrease in affinity against wild type,[2],~7 fold
SAGHAFIVSPVPE [WNK1 peptide 1253–1265 with the arginines replaced by histidine-alanine],fold decrease in affinity against wild type,[1],11 fold
same,fold decrease in affinity against wild type,[2],11 fold
SAGKKFIVSPVPE [WNK1 peptide 1253–1265 with the arginines replaced by lysine-lysine],Ki,[1],4.2 µM
same,Ki,[2],16.3 µM
QLVGRFQVTSSKE [Wild-type human WNK4 peptide 1012–1024 (QLVGRFQVTSSKE)],Ki,[1],7.2 µM
same,Ki,[2],12.9 µM
QLVSRFQVTSSKE [WNK4 peptide 1012–1024 with the −2 glycine changed to serine],binding result,[1],binds
same,binding result,[2],binds
QLVARFQVTSSKE [WNK4 peptide 1012–1024 with the −2 glycine changed to alanine (QLVARFQVTSSKE)],binding result,[1],binds
same,binding result,[2],binds
Ac-QLVGRFQVTSSKE (also: covalently linked to the membrane) [Wild-type WNK4 1012–1024 base peptide on the peptide array],binding result,[3],binds
H-SAGRRFIVSPVPE-OH [Wild-type human WNK1 peptide 1253–1265 (NH3+-SAGRRFIVSPVPE-COO-)],Ki,[1],2.5 µM
same,Ki,[2],5.1 µM
SAGRRFIV[pS]PVPE [WNK1 peptide 1253–1265 with phosphoserine at the +3 position],fold decrease in affinity against the unphosphorylated peptide,[1],~2.5 fold
same,fold decrease in affinity against the unphosphorylated peptide,[2],~2.5 fold
